Measurements reported in IntAct's records for PubMed 22307056.

Target: mk03_mouse Mapk3 (UniProt Q63844)
Sequence (Q63844 whole entry): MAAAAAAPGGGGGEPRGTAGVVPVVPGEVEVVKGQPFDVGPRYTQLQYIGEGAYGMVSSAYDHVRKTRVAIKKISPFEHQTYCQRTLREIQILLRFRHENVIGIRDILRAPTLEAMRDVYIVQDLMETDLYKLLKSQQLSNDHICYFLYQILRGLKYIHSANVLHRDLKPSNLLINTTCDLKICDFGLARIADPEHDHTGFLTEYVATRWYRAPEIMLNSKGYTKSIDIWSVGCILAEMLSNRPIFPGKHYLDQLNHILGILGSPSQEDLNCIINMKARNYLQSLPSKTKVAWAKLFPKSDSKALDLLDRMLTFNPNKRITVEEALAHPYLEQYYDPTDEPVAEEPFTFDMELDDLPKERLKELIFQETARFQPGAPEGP

Chain of Krueppel-like factor 4 (Mus musculus), Q60793 S132A (Q60793 whole entry S132A): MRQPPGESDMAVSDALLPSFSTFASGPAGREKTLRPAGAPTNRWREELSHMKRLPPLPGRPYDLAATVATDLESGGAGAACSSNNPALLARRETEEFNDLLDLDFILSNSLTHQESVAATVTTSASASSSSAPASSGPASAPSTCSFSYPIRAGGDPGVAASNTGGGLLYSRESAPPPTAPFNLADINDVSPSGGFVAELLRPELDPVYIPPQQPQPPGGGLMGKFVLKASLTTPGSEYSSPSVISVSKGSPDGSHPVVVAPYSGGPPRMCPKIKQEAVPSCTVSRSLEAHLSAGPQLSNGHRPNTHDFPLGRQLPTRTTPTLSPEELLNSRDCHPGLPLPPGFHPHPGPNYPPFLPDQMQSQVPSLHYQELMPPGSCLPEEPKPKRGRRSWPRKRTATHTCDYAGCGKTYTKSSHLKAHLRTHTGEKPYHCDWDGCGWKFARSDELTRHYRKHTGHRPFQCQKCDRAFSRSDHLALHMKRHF
Chain of Krueppel-like factor 4 (Mus musculus), Q60793 L89A;R91A;R92A;L101A;L103A (Q60793 whole entry L89A/R91A/R92A/L101A/L103A): as the sequence (Q60793 whole entry S132A) above, with L89A, R91A, R92A, L101A, L103A, A132S counted along it
Chain of Krueppel-like factor 4 (Mus musculus), Q60793 S136A (Q60793 whole entry S136A): as the sequence (Q60793 whole entry S132A) above, with A132S, S136A counted along it
Chain of Krueppel-like factor 4 (Mus musculus), Q60793 L89A;R91A;R92A (Q60793 whole entry L89A/R91A/R92A): as the sequence (Q60793 whole entry S132A) above, with L89A, R91A, R92A, A132S counted along it
Chain of Krueppel-like factor 4 (Mus musculus), Q60793 L101A;L103A (Q60793 whole entry L101A/L103A): as the sequence (Q60793 whole entry S132A) above, with L101A, L103A, A132S counted along it
Chain of Krueppel-like factor 4 (Mus musculus), Q60793 S140A (Q60793 whole entry S140A): as the sequence (Q60793 whole entry S132A) above, with A132S, S140A counted along it

Row | effect of a mutation on the interaction | Substance
1 | disrupting interaction strength | Krueppel-like factor 4 (Mus musculus), Q60793 L89A;R91A;R92A
2 | disrupting interaction strength | Krueppel-like factor 4 (Mus musculus), Q60793 L89A;R91A;R92A;L101A;L103A
3 | decreasing interaction strength | Krueppel-like factor 4 (Mus musculus), Q60793 L101A;L103A

Target: fbw1b_human FBXW11 (UniProt Q9UKB1)
Sequence (Q9UKB1 whole entry): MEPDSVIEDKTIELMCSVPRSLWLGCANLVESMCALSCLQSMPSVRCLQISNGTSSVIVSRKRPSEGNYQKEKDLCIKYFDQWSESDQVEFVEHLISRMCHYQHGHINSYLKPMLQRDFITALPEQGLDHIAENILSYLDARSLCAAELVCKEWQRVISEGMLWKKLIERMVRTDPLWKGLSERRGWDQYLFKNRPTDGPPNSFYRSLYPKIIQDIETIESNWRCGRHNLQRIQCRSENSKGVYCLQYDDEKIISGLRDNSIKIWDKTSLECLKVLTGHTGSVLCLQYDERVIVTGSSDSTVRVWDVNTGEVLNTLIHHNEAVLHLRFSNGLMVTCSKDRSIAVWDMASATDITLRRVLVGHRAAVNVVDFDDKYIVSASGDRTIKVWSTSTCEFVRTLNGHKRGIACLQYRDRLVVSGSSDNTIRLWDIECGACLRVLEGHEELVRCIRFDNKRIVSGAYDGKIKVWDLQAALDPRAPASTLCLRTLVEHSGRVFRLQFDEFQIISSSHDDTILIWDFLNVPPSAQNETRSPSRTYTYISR

Row | effect of a mutation on the interaction | Substance
4 | decreasing interaction strength | Krueppel-like factor 4 (Mus musculus), Q60793 S132A
5 | decreasing interaction strength | Krueppel-like factor 4 (Mus musculus), Q60793 S136A
6 | decreasing interaction strength | Krueppel-like factor 4 (Mus musculus), Q60793 S140A
